Measured values from paper PMC11323494, “A network of acetyl phosphate-dependent modification modulates c-di-AMP homeostasis in Actinobacteria” (mBio, 2024).

System: DasR K78Q (Saccharopolyspora erythraea NRRL2338)
Assay: BLI
Details: BLI: 10 mM HEPES pH 8.0, 2 mM MgCl2, 0.1 mM EDTA, 200 mM KCl (running buffer + 10 µg/mL BSA, 0.02% Tween-20), SA sensor, temperature not stated; EMSA: 5 nM …

Work on disA promoter probe yielded a Kd of 20 µM.
